The results in this text go back to patent publication US20140087426.

Holding throughout (test): cell_activity
For data set [1], the system named is miR-214 TALEN right (synthetic (Xanthomonas TALE)). Conditions: 25/47, as pair.
In data set [2] the test system is kiss1 TALEN right (synthetic (Xanthomonas TALE)). Conditions: 32/40, as pair.
The subject of data set [3] is kiss2 TALEN left (synthetic (Xanthomonas TALE)). As to conditions: 69/69, as pair.
For data set [4], the system named is tnikb TALEN left (synthetic (Xanthomonas TALE)). Conditions: 18/39, as pair.
Data set [5] has as its system kiss2 TALEN right (synthetic (Xanthomonas TALE)). As to conditions: 69/69, as pair.
Data set [6] has as its system miR-1-2 TALEN left (synthetic (Xanthomonas TALE)). Conditions: 34/41, as pair.
In data set [7] the test system is kiss1r TALEN right (synthetic (Xanthomonas TALE)). Conditions: 22/43, as pair.
The subject of data set [8] is miR-214 TALEN left (synthetic (Xanthomonas TALE)). As to conditions: 25/47, as pair.
The test system of data set [9] is kiss1 TALEN left (synthetic (Xanthomonas TALE)). As to conditions: 32/40, as pair.
In data set [10] the test system is spexin TALEN left (synthetic (Xanthomonas TALE)). Conditions: 33/36, as pair.
Data set [11] relates to miR-451 TALEN right (synthetic (Xanthomonas TALE)). As to conditions: 2/47, as pair, 22-bp spacer.
Data set [12] has as its system miR-1-1 TALEN left (synthetic (Xanthomonas TALE)). Conditions: 64/66, as pair.
For data set [13], the system named is kiss1r TALEN left (synthetic (Xanthomonas TALE)). Conditions: 22/43, as pair.
The test system of data set [14] is gria3a TALEN right (synthetic (Xanthomonas TALE)). Conditions: 49/55, as pair, zebrafish embryos.
The test system of data set [15] is gnrh3 TALEN right (synthetic (Xanthomonas TALE)). Conditions: 6/33, as pair, 21-bp spacer.
Data set [16] deals with gnrh3 TALEN left (synthetic (Xanthomonas TALE)). As to conditions: 6/33, as pair, 21-bp spacer.
Data set [17] relates to tnikb TALEN right (synthetic (Xanthomonas TALE)). Conditions: 18/39, as pair.
Data set [18] deals with kiss2r TALEN left (synthetic (Xanthomonas TALE)). As to conditions: 3/45, as pair, 21-bp spacer.
For data set [19], the system named is miR-1-2 TALEN right (synthetic (Xanthomonas TALE)). Conditions: 34/41, as pair.
Data set [20] relates to miR-1-1 TALEN right (synthetic (Xanthomonas TALE)). Conditions: 64/66, as pair.
For data set [21], the system named is gria3a TALEN left (synthetic (Xanthomonas TALE)). As to conditions: mean of 3; with right TALEN, zebrafish embryos; Table 4: 49/55.
Data set [22] concerns gria3a TALEN left -A7 (synthetic (Xanthomonas TALE)). As to conditions: mean of 3, nearly abolished.
The test system of data set [23] is gria3a TALEN left -C1 (synthetic (Xanthomonas TALE)). As to conditions: mean of 3.
Data set [24] relates to gria3a TALEN left -G2 (synthetic (Xanthomonas TALE)). Conditions: mean of 3, nearly abolished.
For data set [25], the system named is gria3a TALEN left -T15 (synthetic (Xanthomonas TALE)). As to conditions: mean of 3.
Data set [26] relates to gria3a TALEN left -T8 (synthetic (Xanthomonas TALE)). As to conditions: 0/64 in 3.
Data set [27] deals with gria3a TALEN left A7C (synthetic (Xanthomonas TALE)). Conditions: mean of 3.
Data set [28] deals with gria3a TALEN left A7G (synthetic (Xanthomonas TALE)). Conditions: mean of 3.
Data set [29] relates to gria3a TALEN left A7T (synthetic (Xanthomonas TALE)). Conditions: mean of 3.
Data set [30] relates to gria3a TALEN left C1A (synthetic (Xanthomonas TALE)). Conditions: mean of 3.
Data set [31] has as its system gria3a TALEN left C1G (synthetic (Xanthomonas TALE)). As to conditions: mean of 3.
For data set [32], the system named is gria3a TALEN left C1T (synthetic (Xanthomonas TALE)). Conditions: mean of 3.
The subject of data set [33] is gria3a TALEN left CLRA (synthetic (Xanthomonas TALE)). As to conditions: mean of 3.
Data set [34] relates to gria3a TALEN left CLRG (synthetic (Xanthomonas TALE)). As to conditions: mean of 3.
Data set [35] has as its system gria3a TALEN left CLRT (synthetic (Xanthomonas TALE)). Conditions: mean of 3.
Data set [36] concerns gria3a TALEN left G2A (synthetic (Xanthomonas TALE)). As to conditions: mean of 3.
The subject of data set [37] is gria3a TALEN left G2C (synthetic (Xanthomonas TALE)). Conditions: mean of 3.
In data set [38] the test system is gria3a TALEN left G2T (synthetic (Xanthomonas TALE)). Conditions: mean of 3.
For data set [39], the system named is gria3a TALEN left T15A (synthetic (Xanthomonas TALE)). As to conditions: mean of 3.
In data set [40] the test system is gria3a TALEN left T15C (synthetic (Xanthomonas TALE)). As to conditions: mean of 3.
Data set [41] has as its system gria3a TALEN left T15G (synthetic (Xanthomonas TALE)). As to conditions: mean of 3.
Data set [42] relates to gria3a TALEN left T8A (synthetic (Xanthomonas TALE)). As to conditions: 0/32 in 3.
Data set [43] deals with gria3a TALEN left T8C (synthetic (Xanthomonas TALE)). As to conditions: mean of 3.
In data set [44] the test system is gria3a TALEN left T8G (synthetic (Xanthomonas TALE)). Conditions: mean of 3.
In data set [45] the test system is spexin TALEN right (synthetic (Xanthomonas TALE)). Conditions: 33/36, as pair.
Data set [46] relates to miR-451 TALEN left (synthetic (Xanthomonas TALE)). Conditions: 2/47, as pair, 22-bp spacer.
Data set [47] concerns kiss2r TALEN right (synthetic (Xanthomonas TALE)). Conditions: 3/45, as pair, 21-bp spacer.

As to “CAGGCAGACAGATGGCA (double strand) [miR-214 right site]”, the activity (% mutant alleles) in data set [1] was 53.2. In the case of “CTTAGAAGGTAAGTTCA (double strand) [kiss1 right site]”, the activity (% mutant alleles) in data set [2] is 80. In turn, “TGATTCTCTTCATGTCTG (double strand) [kiss2 left site]” gave an activity (% mutant alleles) in data set [3] of 100. “TGTTATTTTCTCCCCT (double strand) [tnikb left site]” returned an activity (% mutant alleles) in data set [4] of 46.2.

Sequence “CAGCTATGAGAGCAATA (double strand) [kiss2 right site]” gave an activity (% mutant alleles) in data set [5] of 100.

In turn, “TATGAACATATAAAAGC (double strand) [miR-1-2 left site]” registered an activity (% mutant alleles) in [6] of 82.9. “GTAATAATAGAACCTCA (double strand) [kiss1r right site]” came in with an activity (% mutant alleles) in data set [7] of 51.2.

In the case of “TGCAGAACTTCCTGCAC (double strand) [miR-214 left site]”, in data set [8], the activity (% mutant alleles) turned out to be 53.2. “TACACACAAACCCCTCT (double strand) [kiss1 left site]” yielded an activity (% mutant alleles) in data set [9] of 80. On to “TTTGTGTCCCATTCCT (double strand) [spexin left site]”, for which, in [10], the activity (% mutant alleles) was 91.7. As to “CTGAGTTTAGTAATGGA (double strand) [miR-451 right site]”, in data set [11], the activity (% mutant alleles) was found to be 4.3. With “TATGAACAAGAGCAGC (double strand) [miR-1-1 left site]”, the activity (% mutant alleles) in data set [12] is 97. In the case of “TTCATGTGCAAATTTGT (double strand) [kiss1r left site]”, the activity (% mutant alleles) in data set [13] was 51.2. Turning to “GAGTTTCTGCTCTTTA (double strand) [gria3a right site]”, the activity (% mutant alleles) in data set [14] was 89.1. “GTCCAGTTGTTGCTGTTA (double strand) [gnrh3 right site]”: the activity (% mutant alleles) in [15] was 18.2. “TGTTTTAGTTTTAGCATG (double strand) [gnrh3 left site]” showed an activity (% mutant alleles) in [16] of 18.2. In turn, “ATTTTTGAGCTGGTGGA (double strand) [tnikb right site]” registered an activity (% mutant alleles) in [17] of 46.2.

“TAACCTAATAGTCATCTA (double strand) [kiss2r left site]” gave an activity (% mutant alleles) in data set [18] of 6.7. For the sequence “GTATGTATTCTTGGTCA (double strand) [miR-1-2 right site]”, in data set [19], the activity (% mutant alleles) was found to be 82.9. Regarding “GTATGTATCCCAGGTGA (double strand) [miR-1-1 right site]”, in data set [20], the activity (% mutant alleles) was 97. Consider “TCGTCCAATAGCTTCTC (double strand) [gria3a left site]”, for which the activity (% mutant alleles) in [21] is 84.2; in data set [22] it was 0.5; in data set [23] it was 30.7; in data set [24], 1.6; in [25], 71.9; in data set [26], 0. Further, the activity (% mutant alleles) in data set [27] is 40.1; in data set [28], 82.3; in data set [29], 71.9; in data set [30] it was 33.3; in data set [31], 79.2; in [32], 2.1. Also, the activity (% mutant alleles) is 76 in [33]; 2.2 in data set [34]; 63.1 in [35]; 17.9 in data set [36]; 12.1 in [37]; 52.6 in data set [38]. Moreover, the activity (% mutant alleles) was found to be 20.8 in data set [39]; 3.1 in data set [40]; 65.6 in data set [41]; 0 in [42]; 21.9 in data set [43]; 14.6 in data set [44]. In turn, “AATGTCATGCAATGTTA (double strand) [spexin right site]” had an activity (% mutant alleles) in data set [45] of 91.7. In data set [46], “TCGCTGTGACAGAGAGA (double strand) [miR-451 left site]” yielded an activity (% mutant alleles) of 4.3. In the case of “GATGAAGACGGTTACAAA (double strand) [kiss2r right site]”, the activity (% mutant alleles) in [47] turned out to be 6.7.
